Numbered stars: 1 amine (or outer) side, 2 acyl side, 3 side chain; on linkers, the order of the positions; unused ones are H or OH. Bridge positions count the residues as written; N and C are the ends. Side chains are listed from the residue outwards. Ends that are not written are not given here. * marks the point of attachment. C20 diacid = O=C(O)CCCCCCCCCCCCCCCCCCC(=O)*; γGlu = O=C(O)[C@H](CCC(=O)[*:2])N[*:1]
T1: human calcitonin receptor (human, UniProt P30988 25-474)
T1 sequence (looked up): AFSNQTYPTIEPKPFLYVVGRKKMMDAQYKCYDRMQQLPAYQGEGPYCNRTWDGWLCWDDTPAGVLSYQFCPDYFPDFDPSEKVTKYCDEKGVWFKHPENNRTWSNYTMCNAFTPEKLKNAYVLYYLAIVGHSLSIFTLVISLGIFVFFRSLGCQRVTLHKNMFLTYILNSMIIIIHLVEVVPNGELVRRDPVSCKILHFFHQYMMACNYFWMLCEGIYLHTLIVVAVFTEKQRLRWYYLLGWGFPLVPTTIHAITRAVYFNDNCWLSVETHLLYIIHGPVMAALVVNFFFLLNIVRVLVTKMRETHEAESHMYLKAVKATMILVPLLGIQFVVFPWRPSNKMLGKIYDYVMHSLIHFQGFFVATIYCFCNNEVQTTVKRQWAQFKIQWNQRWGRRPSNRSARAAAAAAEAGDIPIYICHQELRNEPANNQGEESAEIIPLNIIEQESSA


target: T1, human calcitonin receptor; assay: cell-based or functional assay

Row | Binder | hCTR funct. EC50
1 | K([γGlu-C20 diacid])CNTATCATQRLARFLRHSSPNFGAIPSSTPVGSNTY-NH2 (disulfide 2-7; N-terminus assumed; SMILES CC[C@H](C)[C@H](NC(=O)[C@H](C)NC(=O)CNC(=O)[C@H](Cc1ccccc1)NC(=O)[C@H](CC(N)=O)NC(=O)[C@@H]1CCCN1C(=O)[C@H](CO)NC(=O)[C@H](CO)NC(=O)[C@H](Cc1c[nH]cn1)NC(=O)[C@H](CCCNC(=N)N)NC(=O)[C@H](CC(C)C)NC(=O)[C@H](Cc1ccccc1)NC(=O)[C@H](CCCNC(=N)N)NC(=O)[C@H](C)NC(=O)[C@H](CC(C)C)NC(=O)[C@H](CCCNC(=N)N)NC(=O)[C@H](CCC(N)=O)NC(=O)[C@@H](NC(=O)[C@H](C)NC(=O)[C@@H]1CSSC[C@H](NC(=O)[C@@H](N)CCCCNC(=O)CC[C@H](NC(=O)CCCCCCCCCCCCCCCCCCC(=O)O)C(=O)O)C(=O)N[C@@H](CC(N)=O)C(=O)N[C@@H]([C@@H](C)O)C(=O)N[C@@H](C)C(=O)N[C@@H]([C@@H](C)O)C(=O)N1)[C@@H](C)O)C(=O)N1CCC[C@H]1C(=O)N[C@@H](CO)C(=O)N[C@@H](CO)C(=O)N[C@H](C(=O)N1CCC[C@H]1C(=O)N[C@H](C(=O)NCC(=O)N[C@@H](CO)C(=O)N[C@@H](CC(N)=O)C(=O)N[C@H](C(=O)N[C@@H](Cc1ccc(O)cc1)C(N)=O)[C@@H](C)O)C(C)C)[C@@H](C)O, also called compound 63) | 5.13 nM
2 | K([γGlu-C20 diacid])CNTATCATQRLARFLRHSSPNFGAIPSSTNVGSNTY-NH2 (disulfide 2-7; N-terminus assumed; SMILES CC[C@H](C)[C@H](NC(=O)[C@H](C)NC(=O)CNC(=O)[C@H](Cc1ccccc1)NC(=O)[C@H](CC(N)=O)NC(=O)[C@@H]1CCCN1C(=O)[C@H](CO)NC(=O)[C@H](CO)NC(=O)[C@H](Cc1c[nH]cn1)NC(=O)[C@H](CCCNC(=N)N)NC(=O)[C@H](CC(C)C)NC(=O)[C@H](Cc1ccccc1)NC(=O)[C@H](CCCNC(=N)N)NC(=O)[C@H](C)NC(=O)[C@H](CC(C)C)NC(=O)[C@H](CCCNC(=N)N)NC(=O)[C@H](CCC(N)=O)NC(=O)[C@@H](NC(=O)[C@H](C)NC(=O)[C@@H]1CSSC[C@H](NC(=O)[C@@H](N)CCCCNC(=O)CC[C@H](NC(=O)CCCCCCCCCCCCCCCCCCC(=O)O)C(=O)O)C(=O)N[C@@H](CC(N)=O)C(=O)N[C@@H]([C@@H](C)O)C(=O)N[C@@H](C)C(=O)N[C@@H]([C@@H](C)O)C(=O)N1)[C@@H](C)O)C(=O)N1CCC[C@H]1C(=O)N[C@@H](CO)C(=O)N[C@@H](CO)C(=O)N[C@H](C(=O)N[C@@H](CC(N)=O)C(=O)N[C@H](C(=O)NCC(=O)N[C@@H](CO)C(=O)N[C@@H](CC(N)=O)C(=O)N[C@H](C(=O)N[C@@H](Cc1ccc(O)cc1)C(N)=O)[C@@H](C)O)C(C)C)[C@@H](C)O, also called compound 83) [N^ε1-[(4S)-4-carboxy-4-(19-carboxynonadecanoylamino)butanoyl]-[Arg14,Arg17,Pro21,Pro27]-h-amylin] | 16.8 nM
3 | K([γGlu-C20 diacid])CNTATCATQRLARFLRHSSPNFGAIPSSTNVGPNTY-NH2 (disulfide 2-7; N-terminus assumed; SMILES CC[C@H](C)[C@H](NC(=O)[C@H](C)NC(=O)CNC(=O)[C@H](Cc1ccccc1)NC(=O)[C@H](CC(N)=O)NC(=O)[C@@H]1CCCN1C(=O)[C@H](CO)NC(=O)[C@H](CO)NC(=O)[C@H](Cc1c[nH]cn1)NC(=O)[C@H](CCCNC(=N)N)NC(=O)[C@H](CC(C)C)NC(=O)[C@H](Cc1ccccc1)NC(=O)[C@H](CCCNC(=N)N)NC(=O)[C@H](C)NC(=O)[C@H](CC(C)C)NC(=O)[C@H](CCCNC(=N)N)NC(=O)[C@H](CCC(N)=O)NC(=O)[C@@H](NC(=O)[C@H](C)NC(=O)[C@@H]1CSSC[C@H](NC(=O)[C@@H](N)CCCCNC(=O)CC[C@H](NC(=O)CCCCCCCCCCCCCCCCCCC(=O)O)C(=O)O)C(=O)N[C@@H](CC(N)=O)C(=O)N[C@@H]([C@@H](C)O)C(=O)N[C@@H](C)C(=O)N[C@@H]([C@@H](C)O)C(=O)N1)[C@@H](C)O)C(=O)N1CCC[C@H]1C(=O)N[C@@H](CO)C(=O)N[C@@H](CO)C(=O)N[C@H](C(=O)N[C@@H](CC(N)=O)C(=O)N[C@H](C(=O)NCC(=O)N1CCC[C@H]1C(=O)N[C@@H](CC(N)=O)C(=O)N[C@H](C(=O)N[C@@H](Cc1ccc(O)cc1)C(N)=O)[C@@H](C)O)C(C)C)[C@@H](C)O, also called compound 65) | 9.33 nM

Other lines, results leading:

Row | hCTR funct. EC50 | Binder
4 | 3.94 nM | K([γGlu-C20 diacid])CNTATCATQRLANFLRHSSPNFGAIPSSTNVGRNTY-NH2 (disulfide 2-7; N-terminus assumed; SMILES CC[C@H](C)[C@H](NC(=O)[C@H](C)NC(=O)CNC(=O)[C@H](Cc1ccccc1)NC(=O)[C@H](CC(N)=O)NC(=O)[C@@H]1CCCN1C(=O)[C@H](CO)NC(=O)[C@H](CO)NC(=O)[C@H](Cc1c[nH]cn1)NC(=O)[C@H](CCCNC(=N)N)NC(=O)[C@H](CC(C)C)NC(=O)[C@H](Cc1ccccc1)NC(=O)[C@H](CC(N)=O)NC(=O)[C@H](C)NC(=O)[C@H](CC(C)C)NC(=O)[C@H](CCCNC(=N)N)NC(=O)[C@H](CCC(N)=O)NC(=O)[C@@H](NC(=O)[C@H](C)NC(=O)[C@@H]1CSSC[C@H](NC(=O)[C@@H](N)CCCCNC(=O)CC[C@H](NC(=O)CCCCCCCCCCCCCCCCCCC(=O)O)C(=O)O)C(=O)N[C@@H](CC(N)=O)C(=O)N[C@@H]([C@@H](C)O)C(=O)N[C@@H](C)C(=O)N[C@@H]([C@@H](C)O)C(=O)N1)[C@@H](C)O)C(=O)N1CCC[C@H]1C(=O)N[C@@H](CO)C(=O)N[C@@H](CO)C(=O)N[C@H](C(=O)N[C@@H](CC(N)=O)C(=O)N[C@H](C(=O)NCC(=O)N[C@@H](CCCNC(=N)N)C(=O)N[C@@H](CC(N)=O)C(=O)N[C@H](C(=O)N[C@@H](Cc1ccc(O)cc1)C(N)=O)[C@@H](C)O)C(C)C)[C@@H](C)O, also called compound 79) [N^ε1-[(4S)-4-carboxy-4-(19-carboxynonadecanoylamino)butanoyl]-[Arg17,Pro21,Pro27,Arg34]-h-amylin]
5 | 5.4 nM | K([γGlu-C20 diacid])CNTATCATQRLANFLRHSSPNFGAIPSSTNVGHNTY-NH2 (disulfide 2-7; N-terminus assumed; SMILES CC[C@H](C)[C@H](NC(=O)[C@H](C)NC(=O)CNC(=O)[C@H](Cc1ccccc1)NC(=O)[C@H](CC(N)=O)NC(=O)[C@@H]1CCCN1C(=O)[C@H](CO)NC(=O)[C@H](CO)NC(=O)[C@H](Cc1c[nH]cn1)NC(=O)[C@H](CCCNC(=N)N)NC(=O)[C@H](CC(C)C)NC(=O)[C@H](Cc1ccccc1)NC(=O)[C@H](CC(N)=O)NC(=O)[C@H](C)NC(=O)[C@H](CC(C)C)NC(=O)[C@H](CCCNC(=N)N)NC(=O)[C@H](CCC(N)=O)NC(=O)[C@@H](NC(=O)[C@H](C)NC(=O)[C@@H]1CSSC[C@H](NC(=O)[C@@H](N)CCCCNC(=O)CC[C@H](NC(=O)CCCCCCCCCCCCCCCCCCC(=O)O)C(=O)O)C(=O)N[C@@H](CC(N)=O)C(=O)N[C@@H]([C@@H](C)O)C(=O)N[C@@H](C)C(=O)N[C@@H]([C@@H](C)O)C(=O)N1)[C@@H](C)O)C(=O)N1CCC[C@H]1C(=O)N[C@@H](CO)C(=O)N[C@@H](CO)C(=O)N[C@H](C(=O)N[C@@H](CC(N)=O)C(=O)N[C@H](C(=O)NCC(=O)N[C@@H](Cc1c[nH]cn1)C(=O)N[C@@H](CC(N)=O)C(=O)N[C@H](C(=O)N[C@@H](Cc1ccc(O)cc1)C(N)=O)[C@@H](C)O)C(C)C)[C@@H](C)O, also called compound 77) [N^ε1-[(4S)-4-carboxy-4-(19-carboxynonadecanoylamino)butanoyl]-[Arg17,Pro21,Pro27,His34]-h-amylin]
6 | 5.36 nM | K([γGlu-C20 diacid])CNTATCATQRLANFLRHSSPNFGAIPSSTNVGSHTY-NH2 (disulfide 2-7; N-terminus assumed; SMILES CC[C@H](C)[C@H](NC(=O)[C@H](C)NC(=O)CNC(=O)[C@H](Cc1ccccc1)NC(=O)[C@H](CC(N)=O)NC(=O)[C@@H]1CCCN1C(=O)[C@H](CO)NC(=O)[C@H](CO)NC(=O)[C@H](Cc1c[nH]cn1)NC(=O)[C@H](CCCNC(=N)N)NC(=O)[C@H](CC(C)C)NC(=O)[C@H](Cc1ccccc1)NC(=O)[C@H](CC(N)=O)NC(=O)[C@H](C)NC(=O)[C@H](CC(C)C)NC(=O)[C@H](CCCNC(=N)N)NC(=O)[C@H](CCC(N)=O)NC(=O)[C@@H](NC(=O)[C@H](C)NC(=O)[C@@H]1CSSC[C@H](NC(=O)[C@@H](N)CCCCNC(=O)CC[C@H](NC(=O)CCCCCCCCCCCCCCCCCCC(=O)O)C(=O)O)C(=O)N[C@@H](CC(N)=O)C(=O)N[C@@H]([C@@H](C)O)C(=O)N[C@@H](C)C(=O)N[C@@H]([C@@H](C)O)C(=O)N1)[C@@H](C)O)C(=O)N1CCC[C@H]1C(=O)N[C@@H](CO)C(=O)N[C@@H](CO)C(=O)N[C@H](C(=O)N[C@@H](CC(N)=O)C(=O)N[C@H](C(=O)NCC(=O)N[C@@H](CO)C(=O)N[C@@H](Cc1c[nH]cn1)C(=O)N[C@H](C(=O)N[C@@H](Cc1ccc(O)cc1)C(N)=O)[C@@H](C)O)C(C)C)[C@@H](C)O, also called compound 60) [N^ε1-[(4S)-4-carboxy-4-(19-carboxynonadecanoylamino)butanoyl]-[Arg17,Pro21,Pro27,His35]-h-amylin]
